Laboratory results from the DeepSol protein solubility set.

Experiment: soluble on expression in E. coli; label from the status in PepcDB or PDB records

| Sequence | soluble on expression in E. coli |
| --- | --- |
| MATESGSDSQLRRRRRRDPEGSEKTELSEREPALAVAGSEENDDENEERWVGPLPVEATLAKKRKVLEFERVYLDNLPSASMYERSYMHRDVITHVVCTKTDFIITASHDGHVKFWKKIEEGIEFVKHFRSHLGVIESIAVSSEGALFCSVGDDKAMKVFDVVNFDMINMLKLGYFPGQCEWIYCPGDAISSVAASEKSTGKIFIYDGRGDNQPLHIFDKLHVSPLTQIRLNPVYKAVVSSDKSGMIEYWTGPPHEYKFPKNVNWEYKTDTDLYEFAKCKAYPTSICFSPDGKKIATIGSDRKVRIFRFLTGKLMRVFDESLSMFTELQQMRQQLPDMEFGRRMAVERELEKVDAVRLVNIVFDETGHFVLYGTMLGIKVINVEPNRCVRILGKQENIRVMQLALFQGIAKKHRAAATIEMKASENPVLQNIQADPTIVCTSFKKNRFYMFTKRETEDTKTADSDRDVFNEKPSKEEVMAATQAEGPKRVSDSAIVHTSMGDIHIKLFPVECPKTVENFCVHSRNGYYNGHTFHRIIKGFMIQTGDPTGTGMGGESIWGGEFEDEFHSTLRHDRPYTLSMANAGSNTNGSQFFITVVPTPWLDNKHTVFGRVSKGMEVVQRIFNVKVNPQTDKPYEDVSIINITVK | soluble |
| MLRRQMSFNGKSDMGILYLVPTPIGNLEDMTFRAIDTLKSVDAIAAEDTRQTKKLCHVYEIETPLVSYHEHNKESSGHKIIEWLKSGKNIALVSDAGLPTISDPGAEIVKDFTDIGGYVVPLPGANAALTALIASGIVPQPFFFYGFLNRQKKEKKKELEALKKRQETIIFYEAPHRLKETLSAMAEILGDREIAVTRELTKKYEEFIRGTISEVIGWANEDQIRGEFCLVVEGSNNEEVDEEEQWWETLTAKEHVEHYISKGATSKEAIKKAAVDRNVPKREVYDAYHIKQLEHHHHHH | not soluble |
| SQKPCKENEGKPKCSVPKREEKRPYGEFERQQTEGNFRQRLLQSLEEFKEDIDYRHFKDEEMTREGDEMERCLEEIRGLRKKFRALHSNHRHSRDRPYPI | soluble |
| MSILKNAGEPVISMRYIPYNGGAVKETWWDRDSDRKRLLISLGTVKPMVDGLELISWVMDSANEVDADIILQLAINARTGLRKLPSNVRLVDWIPMGVFLNGADGFIHHGGAGNTLTALYSGIPQIVFGEGADRSVNAEIVAKRGCGIIPDKHGLTSDLVNRLLYDDSLRFCSDQVAAEMAEQPSPAEIAEVLMRKLKNNGKQL | not soluble |
| AVPFVEDWDLVQTLGEGAYGEVQLAVNRVTEEAVAVKIVDMKRAVDCPENIKKEICINKMLNHENVVKFYGHRREGNIQYLFLEYCSGGELFDRIEPDIGMPEPDAQRFFHQLMAGVVYLHGIGITHRDIKPENLLLDERDNLKISDFGLATVFRYNNRERLLNKMCGTLPYVAPELLKRREFHAEPVDVWSCGIVLTAMLAGELPWDQPSDSCQEYSDWKEKKTYLNPWKKIDSAPLALLHKILVENPSARITIPDIKKDRWYNKPLKKG | soluble |
| MGSDKIHHHHHHMLDKKTNIATDDPKAWLAQHGINEVECLVPDMNGVLRGKALPTAKFLKALEDRALYLPSSAFLVSIDGRYSGSIDEGFAYSDPDMRMVPDVSTLCLAPGAGAGKAYVFADAFHMDGRPWMASPRHVLRAVLDLYRQRGWRAVVAPEVEFYLTAPNPDPDRPLTAPVGANGRAEGVQHPYDMVALEEFEPVIRRVYDYAAAAGLPLDTLIHESGTAQLEINLLHGDALPLADQVLLFKRLTRQAAQQCGMHATFMAKPIAAQAGSSMHLHMSVVDEAGNALFASDDDADTEMFGHFIGGLQTYVPEIMPLFAPNVNSFRRIRPNHSAPANIEWSHDNRSCGLRVPAGGRSARRVENRLPGADSNPYLAIAGSLLAGYLGVQQKLARSAEASGNAYKIKSTLPKTMEEALDRFTACEPVRKLLGEDFSQTYLRVKSVELDLFQSVVTSWERDHLLLKV | not soluble |
| MGSSHHHHHHSSGLVPRGSHMRVAMISMHTSPLQQPGTGDSGGMNVYILSTATELAKQGIEVDIYTRATRPSQGEIVRVAENLRVINIAAGPYEGLSKEELPTQLAAFTGGMLSFTRREKVTYDLIHSHYWLSGQVGWLLRDLWRIPLIHTAHTLAAVKNSYRDDSDTPESEARRICEQQLVDNADVLAVNTQEEMQDLMHHYDADPDRISVVSPGADVELYSPGNDRATERSRRELGIPLHTKVVAFVGRLQPFKGPQVLIKAVAALFDRDPDRNLRVIICGGPSGPNATPDTYRHMAEELGVEKRIRFLDPRPPSELVAVYRAADIVAVPSFNESFGLVAMEAQASGTPVIAARVGGLPIAVAEGETGLLVDGHSPHAWADALATLLDDDETRIRMGEDAVEHARTFSWAATAAQLSSLYNDAIANENVDGETHHG | soluble |
| AAKVHVDIEADSPFIKSLQKAFPSFEVESLQVTPNDHANARAFSHLATKLIEQETDKDLILDIGSAPSRRMMSTHKYHCVCPMRSAEDPERLDSYAKKLAAASGKVLDREIAGKITDLQTVMATPDAESPTFCLHTDVTCRTAAEVAVYQDVYAVHAPTSLYHQAMKGVRTAYWIGFDTTPFMFDALAGAYPTYATNWADEQVLQARNIGLCAASLTEGRLGKLSILRKKQLKPCDTVMFSVGSTLYTESRKLLRSWHLPSVFHLKGKQSFTCRCDTIVSCEGYVVKKITMCPGLYGKTVGYAVTYHAEGFLVCKTTDTVKGERVSFPVCTYVPSTICDQMTGILATDVTPEDAQKLLVGLNQRIVVNGRTQRNTNTMKNYLLPIVAVAFSKWAREYKADLDDEKPLGVRERSLTCCCLWAFKTRKMHTMYKKPDTQTIVKVPSEFNSFVIPSLWSTGLAIPVRSRIKMLLAKKTKRELIPVLDASSARDAEQEEKERLEAELTREALPPLVPIAPAETGVVDVDVEELEYHAGA | not soluble |
| MSLNKFVDREGSVVAVYAAKSKAGCSAPDVEKVNQDAFCLVEKYGDSPNLSWFSVMDGHGLNGHLVSDIVRQILHKNVQECPEFNRDIKQALQKGFFRTNCELFQPGIDITMSGTTCVACVFHGSTLYSANVGDSRAIMGRSNGKGGWTSLSLTHDHKPDRPDEEKRILAADGRVGALKGPNGEALGPARVWRKDCDAPGLAMSRSLGDSLAASVGVIDDFIVIASDGLWEFMTNEEVTQIVSRFLDSRDPLGACDGLIEEANRRWRLEDDVIDDTTVVVIFLDVGRKEGHHHHHH | not soluble |
| MSLNDYSRQNFLDLNLFRGLGEDPAYHPPVLTDRPRDWPLDRWAEAPRDLGYSDFSPYQWRGLRMLKDPDTQAVYHDMLWELRPRTIVELGVYNGGSLAWFRDLTKIMGIDCQVIGIDRDLSRCQIPASDMENITLHQGDCSDLTTFEHLREMAHPLIFIDDAHANTFNIMKWAVDHLLEEGDYFIIEDMIPYWYRYAPQLLSEYLGAFRDVLSMDMLYANASSQLDRGVLRRVAAKQEGHHHHHH | soluble |
| MSLGTGSLGLTFHNFSFGDLFNPSAYHPLPHGDGQTLALQWQFGSNHYRTLSLSASDPWAFGTHTSLGFTAFKTKQTYDLTSSNLSTKTINQYGADITIGRRLTWPDDYFAISWRLGYLHTKGGFVSFLNETNAPEEAEEFSITQTISRNSIDNPIYPRHGSKNVFTAQLAGGVLPGTINFYKLIGKTSWFFPVSHNLVVNVAAQQGYLNTFSKDDYIPYTDYFYMGGSGMSSLPTIPLRGYPDHSLGQQFEGETDLYGGRVYSKFTTEVRYPLTLSSSASIYALAFAEAGNLWASASDFNLTDLKKSAGIGLRLYLPIIGQIGIDYGYGFDSVPSEPGKKPQGWNFTFSFGQPNEGHHHHHH | not soluble |
| LKRLFWPVLLVVLGFGTYEGAQRLLPYADRPIARINVQGDLSYISQQAVQQRIAPYVASSFFKIDLAAMRTELEQMPWIAHAEVRRVWPDQVVIRLEEQLPVARWGDEALLNNQGQAFTPRELSNYEHLPQLFGPQRAQQQVMQQYQVLSQMLRPMGFSIVRLELRERGSWFLTTGAGSAGPGIELLLGRDHLVEKMRRFIAIYDKTLKEQITNIARVDLRYSNGLAVGWREQAAATTDKPAVAKN | not soluble |
| MTMDFQITRRYPCSYLPGELARSRIVVTDDTLSDSNTYAQLIQQGYRRSGSLIYRPDCDYCHACIPVRIPVELFDPNRTQRRIWKRHQHLQIAWHPLHFDPVHFDLYQRYQKSRHTNGSMDQDDENGRKQYRDFLLKSTVDSFLVTFHENEQLRMVSIIDRLPDGLSPVYTFFEPDVPGSSYGTFNILWQTAQCRADRLPYLYLGYWIANSRKMHYKANFQPLQYLIDNQWQYRTTNRLEHHHHHH | not soluble |
| MRGSHHHHHHGMASMTGGQQMGRDLYDDDDKMSVIKPEMKMKYFMDGSVNGHEFTVEGEGTGKPYEGKHKITLDVTKGGPLPFAFDLLSTVFSYGNRCLTKYPDDIPDYFKQCFPGGYSWERKFEFEDGGLAIAKAEISLKGNCFEHKSTIEGTFPDSSPIAQNKTLGWEPSTEKMTVRDGSMKGDDAAYLKLVGGGNHKCYFTTTYTAKKKIPNLPQSHFIGHRISSVVNGTKIGVMEDAIAHLYPFNGVPCQ | soluble |
| MCAHRPATAPDFLLSRSHGSIRTQGAVETFSDPGKAVEALRSGRVELVVGALAFRRDHACALTVPRSVIREEGPLEPHAYYRQGPGSIVNAQVEKLVPSLDKHHARVEAAINTIKSTSLKKVVLARAVDMTFSPAVDPRLIAARLIDLSRNRDGFIADLTPAGEDFAGAM | not soluble |
| EVQLVESGGGLVQPGGSLRLSCAASGFTISSSSIHWVRQAPGKGLEWVAWVLPSVGFTDYADSVKGRFTISADTSKNTAYLQMNSLRAEDTAVYYCARRVCYNRLGVCAGGMDYWGQGTLVTVSSASTKGPSVFPLAPSSKSTSGGTAALGCLVKDYFPEPVTVSWNSGALTSGVHTFPAVLQSSGLYSLSSVVTVPSSSLGTQTYICNVNHKPSNTKVDKKVEPKSCDKTH | soluble |
| TMNPLYSLKRSEERRNVVLSRMLDEKYISKEEYDAALKEPIVASYHGAKFEFRADYVTEMVRQEMVRRFGEENAYTSGY | not soluble |
| MMEADKKFLELVKKWGVLSVVSSWQDRLLRDICALIVECVLFDKTCAVAPAYFTLIAMNSSKFSTQQWNIFSNFLATASTQSLRHVRLLNSFFVRSSTDENGDIGDVTSYNPGKLTFRQLIAAVQVLSSQKEKSLGQKEEEDLSSGVALIMLSHGADTHRLEVHSIISSLFTHCLLLQLIASLLLSEDSNPKLKATLIGSTSPIDPKLDDSIYPILYNILNESSETSLDFDSRPAVGSLLSRMLGIKHANLLKALVSSNLTKTMSLLRRFEKTKNTELLPEIAKAVKSRSVDLKSVEFEVSTRRSAFVTREHAITQYHLVPVDNGEENAYKLVSQEFVDGALSEYDKHRDRLKPFIPDRRNPFQHAIDDSDTVSIDSKTEDFDEIRLAAYRDICLIPLRYVSDNLLREHLPDFLPPVTQIVLSSPDLAVRQLAVDFMSRLA | not soluble |
| MGSDKIHHHHHHALLGTTGLLHAPTADMQRDKTFLFGGNYLNTHPLSTHFRSSEVGYTFNYYINITIFPWLEVSYICTLVHADHGSTYFPEQSWGKFTNQDRAFSARLRLWKEGWWKEWTPQIVLGLDDPTSHADHGGGELVSGNTSGSNNYATRYYLAVTKHLDVQNIGEWGIHAAFVYGNAKGIEHYKRPSFGTNFRFQLLGDQPLIKVVNNLNLMAEYDARTVNIGAHYQLWKDHINLIAELNNGKYFSGGIYFKIHLK | not soluble |
| MGSDKIHHHHHHEEAEAHQKPVEIQPETVKIARNSELTIVPLYTPYQKYLKASLKTDDPEMDKKYYAKYVLSYIDEIGEQEKFSTADLKGNFMLQSTSYEQELLNRIDTLMKQHDKIKEVITENYIAAHKILPKKKSTIFIVPSNSDFPTMSESLAGVTGAAYKDAFVLYLDQTFDKNVLAYTIAHEYHHLILHDTPDFKISSVLKSVIVEGKADAFADRIVKGVSPPWDVPMDNTTKKHVAGLVNNYETTFNDVTFGNEQKDIPRWSNYILGRDILNHYLKSNPNLSIKEWTYKDEHEILKDYKYQNILE | not soluble |
| KGSYDLIFGDKNTKNYYAKFAKDHQTHLYQKIKESKDEQFRFVETQETTNNLGN | soluble |
